The values that follow are results of earlier work, collected in paper PMC2884013.

One may read the pKa as the pH at which an ionisable group is half protonated.

In this data set the target is Glu78 (UniProt position 78, RISTVEHLNAA). Put plainly: kinetics. The note with it: Zn2+-bound wild-type enzyme.

For “UDP-3-O-(R-3-hydroxymyristoyl)-N-acetylglucosamine deacetylase (LpxC, EcLpxC) (Escherichia coli)”, the pKa is 6.2 ± 0.2.
